Measurements taken from patent US9580469B2, “Peptides for the treatment and early diagnosis of Alzheimer's disease and other tauopathies” (priority 2012, dated 2017).
Where no end group is shown, it is not given here. [ ]: non-standard residue; d: D form.

What was measured:
Type in all cases: biochemical
[1] = biological target: T1, tau full-length protein (Homo sapiens, UniProt P10636); assay: Dynamic light scattering (DLS) measurements of tau aggregation with arachidonic acid; conditions: for Mass Day 1 / Mass Day 8 / Particle size Day 1 / Particle size Day 8: DLS, 1 μg/ml tau full-length protein, 100 μM arachidonic acid (AA), peptide at ratio 1:10; for Effect on aggregation of tau in DLS (in words): tau full-length protein, 100 μM arachidonic acid, peptide ratio 1:10
T1 construct: Since this is not possible for the full-length tau protein (441 amino acids)
T1 sequence (P10636 1-441 isoform P10636-8): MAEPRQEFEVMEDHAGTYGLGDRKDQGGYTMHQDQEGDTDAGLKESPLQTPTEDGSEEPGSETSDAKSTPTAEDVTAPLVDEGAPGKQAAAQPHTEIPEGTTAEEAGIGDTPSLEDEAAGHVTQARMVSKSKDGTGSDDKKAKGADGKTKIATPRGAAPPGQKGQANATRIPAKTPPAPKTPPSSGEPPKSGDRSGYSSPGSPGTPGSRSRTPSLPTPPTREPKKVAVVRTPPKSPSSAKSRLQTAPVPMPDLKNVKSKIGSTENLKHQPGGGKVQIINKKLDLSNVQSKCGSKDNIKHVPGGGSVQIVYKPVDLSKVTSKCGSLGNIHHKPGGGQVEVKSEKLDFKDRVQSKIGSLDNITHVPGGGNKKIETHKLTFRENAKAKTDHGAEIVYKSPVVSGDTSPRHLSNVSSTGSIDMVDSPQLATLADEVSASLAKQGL
Procedure: For this purpose. 1 μg/ml tau full-length protein was analyzed using 100 μM arachidonic acid and the respective peptide at a ratio of 1:10. Tau without peptide and without the addition of arachidonic acid was measured for control purposes. […] DLS was carried out with an acquisition time of 5 seconds for 3 minutes at room temperature.

[2] = biological target: tau fibrils (Homo sapiens, UniProt P10636); assay: Effect of peptides on existing tau fibrils
Chain of tau fibrils (P10636 1-441 isoform P10636-8): as above

[3] = biological target: PHF-6 (Homo sapiens, UniProt P10636); assay: ThT aggregation assay of PHF-6 (relative fibril content); conditions: 25 μM PHF-6, PHF-6:peptide 1:1 and 1:10, two hours of incubation
Procedure: (§1) In mirror image phage display selections, the selection rounds are carried out against a D-enantiomer as the target, which must be generated synthetically. Since this is not possible for the full-length tau protein (441 amino acids), the selections were carried out against the D-enantiomer of a 6-mer tau fragment (PHF-6), which can be found in tau repeats R2 and R3 and, according to various studies, forms the core of the neurofibrillary tangles (von Bergen, M., Assembly of τ protein into Alzheimer paired helical filaments depends on a local sequence motif (306VQIVYK311) forming β structure PNAS, 1999. 97(10): p. 5129-5134; Miller, M., Synergistic Interactions between Repeats in Tau Protein and Aβ Amyloids May Be Responsible for Accelerated Aggregation via Polymorphic States. 5172-5181, 2011. 50(23): p. 5172-5181). […]
The concentration of PHF-6 was 25 μM; the peptides were measured at a ratio of 1:1 and 1:10 (PHF-6:peptide) and as controls individually in a 25 μM concentration (not shown). The fluorescence of 25 μM PHF-6 after two hours of incubation was set at 100%, and the values and standard deviations of the remaining incubations are indicated as percentages of this maximal value.

[4] = biological target: full-length tau protein (Homo sapiens, UniProt P10636); assay: ThT aggregation assay of tau with 100 μM arachidonic acid (relative fibril content); conditions: 5 μM tau, tau:peptide 1:1 and 1:10, 24 hours
Chain of full-length tau protein (P10636 1-441 isoform P10636-8): as above
Procedure: as §1, with “5172-5181). Since aggregated material is to serve as the target for the selection, and monomeric tau protein has important physiological functions and must not be inhibited in vivo, only fribriilary material was used for the selection.” for “5172-5181).”
The concentration of tau was 5 μM; the peptides were added at a ratio of 1:1 and 1:10 (tau:peptide). The fluorescence of 5 μM tau after 24 hours of incubation was set at 100%, and the values and standard deviations of the remaining incubations are indicated as percentages of this maximal value.

In the case of “TTSLQMRLYYPP (not fully specified (some residues)) [TL28, label not defined in the text]”, the “Mass Day 1” value [1] is reported as “≧99%” and the “Mass Day 8” value [1] is reported as 100%.
aptilrlhslga was tested, and the “Mass Day 1” value [1] was “≧99%”, the “Particle size Day 1” value [1] was 1-fold and the “Mass Day 8” value [1] was “≧98%”. For the same substance, the “Particle size Day 8” value [1] was 1-fold and the “Effect on existing tau fibrils” value [2] was “dissolve existing tau fibrils”.
“kntpqhrklrls ([dK][dN][dT][dP][dQ][dH][dR][dK][dL][dR][dL][dS]) [D-peptide from selections against D-PHF-6]” was tested, and the “Mass Day 1” value [1] was “≧99%”, the “Particle size Day 1” value [1] was 1-fold and the “Mass Day 8” value [1] was “≧99%”. For the same substance, the “Particle size Day 8” value [1] was 1-fold and the “Effect on existing tau fibrils” value [2] was “dissolve existing tau fibrils”.
For “ppyylxmqlstt ([dP][dP][dY][dY][dL][dR][dM][dQ][dL][dS][dT][dT]) [TD28ri, retro-inverso peptide of …]”, the “Mass Day 1” value [1] was 100%, the “Particle size Day 1” value [1] was 55-fold and the “Mass Day 8” value [1] was 100%. For the same substance, the “Particle size Day 8” value [1] was 44-fold, the “Effect on aggregation of tau in DLS (in words)” value (“Effect on aggregation of tau” for short) [1] was “formation of very large aggregates” and the “Effect on existing tau fibrils” value [2] was “convert tau fibrils into large amorphous aggregates”.
“tlkivw ([dT][dL][dK][dI][dV][dW]) [Sievers, reference compound]” was tested, and the “Inhibition of aggregation / fibril formation of PHF-6” value [3] was “inhibited the aggregation of PHF-6 to a similar degree as that of the peptides we developed”, the “Inhibition of fibrillization / aggregation of the full-length tau protein” value [4] was “not the aggregation of the full-length tau protein” and the “Inhibition of fibrillization / aggregation of the full-length tau protein” value ([4]; listed as peptide selected by Sievers) was “in most approaches showed no effect at all”. For the same substance, the “Mass Day 1” value [1] was 100%, the “Mass Day 8” value [1] was “≧98%” and the “Effect on aggregation of tau” value [1] was “showed no effect on the aggregation of the full-length tau protein”.
In the case of “ttslqmrlyypp ([dT][dT][dS][dL][dQ][dM][dR][dL][dY][dY][dP][dP]) [TD28]”, the “Mass Day 1” value [1] is reported as 100%, the “Particle size Day 1” value [1] is reported as 42-fold and the “Mass Day 8” value [1] is reported as 100%. The “Particle size Day 8” value [1] was 48-fold, the “Effect on aggregation of tau” value [1] was “formation of very large aggregates” and the “Effect on existing tau fibrils” value [2] was “convert tau fibrils into large amorphous aggregates”.
